Results published in US20220056119A1.

Experiments:
[1] = target: activin Type II receptors (ActRIIA and ActRIIB) on A204/CAGAx12-Luc cells; test: cell-based or functional assay
[2] = target: Activin A (R&D Systems, #338-AC) (human) (UniProt P08476); test: SPR blocking: 5 nM Activin A + 0.00 nM binder over hActRIIB-hFc (Control 4) surface
[3] = target: Activin A (R&D Systems, #338-AC) (human) (UniProt P08476); test: SPR blocking: 5 nM Activin A + 60 nM binder over hActRIIB-hFc (Control 4) surface
[4] = target: Activin A (R&D Systems, #338-AC) (human) (UniProt P08476); test: SPR blocking: 5 nM Activin A + 30 nM binder over hActRIIB-hFc (Control 4) surface
[5] = target: Activin A (R&D Systems, #338-AC) (human) (UniProt P08476); test: SPR blocking: 5 nM Activin A + 15 nM binder over hActRIIB-hFc (Control 4) surface
[6] = target: Activin A (R&D Systems, #338-AC) (human) (UniProt P08476); test: SPR blocking: 5 nM Activin A + 7.50 nM binder over hActRIIB-hFc (Control 4) surface
[7] = target: Activin A (R&D Systems, #338-AC) (human) (UniProt P08476); test: SPR blocking: 5 nM Activin A + 1.88 nM binder over hActRIIB-hFc (Control 4) surface
[8] = target: Activin A (R&D Systems, #338-AC) (human) (UniProt P08476); test: SPR blocking: 5 nM Activin A + 0.94 nM binder over hActRIIB-hFc (Control 4) surface
[9] = target: Activin A (R&D Systems, #338-AC) (human) (UniProt P08476); test: SPR blocking: 5 nM Activin A + 3.75 nM binder over hActRIIB-hFc (Control 4) surface
[10] = target: Activin A (homodimer of two inhibin betaA subunits) (human) (UniProt P08476); test: cell-based or functional assay
Sequence of Activin A (homodimer of two inhibin betaA subunits) (human) (P08476 311-426 limits assumed): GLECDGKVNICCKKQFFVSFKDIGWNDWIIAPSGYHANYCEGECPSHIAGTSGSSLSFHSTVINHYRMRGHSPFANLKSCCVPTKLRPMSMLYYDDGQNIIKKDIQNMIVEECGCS

Sequence of Activin A (R&D Systems, #338-AC) (human) (P08476 311-426 limits assumed): as above

| Substance | activation of the A204/CAGAx12-Luc cell line (Smad 2/3-luciferase reporter), EC50 [1] | % bound RU w/ no inhibitor [2] | % bound RU w/ no inhibitor [3] | % bound RU w/ no inhibitor [4] | % bound RU w/ no inhibitor [5] | % bound RU w/ no inhibitor [6] | % bound RU w/ no inhibitor [7] | % bound RU w/ no inhibitor [8] | % bound RU w/ no inhibitor [9] | other results |
| --- | --- | --- | --- | --- | --- | --- | --- | --- | --- | --- |
| Activin AC (heterodimer of one betaA subunit and one betaC subunit) (from UniProt P55103 237-352) (ligand) | 4400 pM | – | – | – | – | – | – | – | – | – |
| GDF11 (from UniProt O95390 299-407) (ligand) | – | – | – | – | – | – | – | – | – | activation of A204/CAGAx12-Luc cells, EC50 [1]: 84 pM; activation of A204/CAGAx12-Luc cells, EC50 (separate day) [1]: 166 pM |
| isotype control antibody | – | 100% | 115% | 111% | 110% | 107% | 105% | 105% | 104% | – |
| isotype control antibody (Example 7) | – | – | – | – | – | – | – | – | – | action potential duration, cardiomyocytes chronically treated with 1 nM activin A plus isotype control [10]: 0.56 s; calcium flux falling time, cardiomyocytes treated with activin A plus isotype control [10]: 0.75 s; calcium flux rising time, cardiomyocytes treated with activin A plus isotype control [10]: 0.36 s; field potential amplitude, cardiomyocytes chronically exposed to activin A plus 25 nM isotype control [10]: 42.9 µV; field potential downstroke velocity, cardiomyocytes exposed to activin A plus 25 nM isotype control [10]: 0.019 V/sec; peak calcium handling amplitude, cardiomyocytes treated with activin A plus isotype control [10]: 484 RFU |

Further lines, with some results ahead:

| activation of the A204/CAGAx12-Luc cell line (Smad 2/3-luciferase reporter), EC50 [1] | % bound RU w/ no inhibitor [2] | % bound RU w/ no inhibitor [3] | % bound RU w/ no inhibitor [4] | % bound RU w/ no inhibitor [5] | % bound RU w/ no inhibitor [6] | % bound RU w/ no inhibitor [7] | % bound RU w/ no inhibitor [8] | % bound RU w/ no inhibitor [9] | Substance | other results |
| --- | --- | --- | --- | --- | --- | --- | --- | --- | --- | --- |
| 19 pM | – | – | – | – | – | – | – | – | Activin AB (heterodimer of one betaA subunit and one betaB subunit) (from UniProt P08476 311-426; P09529 293-407) (ligand) | – |
| – | 100% | 2% | 1% | 2% | 33% | 133% | 135% | 120% | Control 3 (murine anti-Activin A monoclonal antibody from R&D Systems, catalog number MAB3381) | – |
